Numbered stars: 1 amine (or outer) side, 2 acyl side, 3 side chain; on linkers, the order of the positions; unused ones are H or OH. Bridge positions count the residues as written; N and C are the ends. Side chains are listed from the residue outwards. Ends that are not written are not given here. * marks the point of attachment. C20 diacid = O=C(O)CCCCCCCCCCCCCCCCCCC(=O)*; γGlu = O=C(O)[C@H](CCC(=O)[*:2])N[*:1]
How the values were obtained:
[1] = molecular target: T1, human calcitonin receptor (human, UniProt P30988 25-474); test: cell-based or functional assay
T1 sequence (looked up): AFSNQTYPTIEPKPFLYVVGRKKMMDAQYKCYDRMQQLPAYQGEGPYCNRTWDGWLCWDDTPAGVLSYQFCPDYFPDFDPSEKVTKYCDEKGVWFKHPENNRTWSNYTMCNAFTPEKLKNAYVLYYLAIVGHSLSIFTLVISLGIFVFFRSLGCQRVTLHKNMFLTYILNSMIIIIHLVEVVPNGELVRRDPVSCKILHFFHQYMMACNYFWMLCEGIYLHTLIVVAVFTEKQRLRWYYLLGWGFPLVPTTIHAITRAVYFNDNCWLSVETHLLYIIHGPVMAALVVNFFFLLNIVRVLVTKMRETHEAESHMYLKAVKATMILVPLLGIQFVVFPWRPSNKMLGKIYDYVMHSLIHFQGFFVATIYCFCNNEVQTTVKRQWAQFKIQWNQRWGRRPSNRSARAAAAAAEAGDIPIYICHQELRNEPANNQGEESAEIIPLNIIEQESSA

[2] = molecular target: T2, human amylin receptor (amylin 3(a) receptor: human calcitonin receptor with RAMP-3) (human, UniProt P30988 25-474; O60896 24-148, limits assumed); test: SPA competition binding on membranes of BHK cells with human calcitonin receptor + RAMP-3; displacement of 125I-rat amylin (Assay V)
T2 construct: whole, on cells; Whole cells in the luciferase assay (Assay II a); also called hAmylin-R; hAmylinR
T2 sequence (looked up) 1: T1 sequence (looked up)
T2 sequence (looked up) 2: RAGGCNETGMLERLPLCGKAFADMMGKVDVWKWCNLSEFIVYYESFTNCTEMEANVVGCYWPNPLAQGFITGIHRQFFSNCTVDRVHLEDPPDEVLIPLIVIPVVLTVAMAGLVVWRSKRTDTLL
In short: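 SPA beads + BHK amylin 3(a)/CRE-luc membranes, 35 ng/μL final; buffer 50 mM Hepes pH 7.4, 1 mM CaCl2, 5 mM MgCl₂, 0.1% OA, 0.02% Tween20. 120 min, 25° C, shaken; scintillation count. IC₅₀ by one-site binding competition fit, taken as receptor affinity.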

B1: N^ε1-[(4S)-4-carboxy-4-(19-carboxynonadecanoylamino)butanoyl]-[His14,Arg17,Pro21,Pro27,Pro31,Pro34]-h-amylin (peptide)
peptide: K([γGlu-C20 diacid])CNTATCATQRLAHFLRHSSPNFGAIPSSTPVGPNTY-NH2
modifications: disulfide 2-7; N-terminus assumed
SMILES: CC[C@H](C)[C@H](NC(=O)[C@H](C)NC(=O)CNC(=O)[C@H](Cc1ccccc1)NC(=O)[C@H](CC(N)=O)NC(=O)[C@@H]1CCCN1C(=O)[C@H](CO)NC(=O)[C@H](CO)NC(=O)[C@H](Cc1c[nH]cn1)NC(=O)[C@H](CCCNC(=N)N)NC(=O)[C@H](CC(C)C)NC(=O)[C@H](Cc1ccccc1)NC(=O)[C@H](Cc1c[nH]cn1)NC(=O)[C@H](C)NC(=O)[C@H](CC(C)C)NC(=O)[C@H](CCCNC(=N)N)NC(=O)[C@H](CCC(N)=O)NC(=O)[C@@H](NC(=O)[C@H](C)NC(=O)[C@@H]1CSSC[C@H](NC(=O)[C@@H](N)CCCCNC(=O)CC[C@H](NC(=O)CCCCCCCCCCCCCCCCCCC(=O)O)C(=O)O)C(=O)N[C@@H](CC(N)=O)C(=O)N[C@@H]([C@@H](C)O)C(=O)N[C@@H](C)C(=O)N[C@@H]([C@@H](C)O)C(=O)N1)[C@@H](C)O)C(=O)N1CCC[C@H]1C(=O)N[C@@H](CO)C(=O)N[C@@H](CO)C(=O)N[C@H](C(=O)N1CCC[C@H]1C(=O)N[C@H](C(=O)NCC(=O)N1CCC[C@H]1C(=O)N[C@@H](CC(N)=O)C(=O)N[C@H](C(=O)N[C@@H](Cc1ccc(O)cc1)C(N)=O)[C@@H](C)O)C(C)C)[C@@H](C)O
[1]
  Ratio hCT/hAmylin funct.: 4.9 ratio
[2]
  IC50: 0.082 nM

B2: N^ε1-[(4S)-4-carboxy-4-[[(4S)-4-carboxy-4-(19-carboxynonadecanoylamino)butanoyl]amino]butanoyl]-[Glu14,Arg17,Pro21,Pro27,Pro34,Glu35,Pro37]-h-amylin (peptide)
peptide: K([γGlu-γGlu-C20 diacid])CNTATCATQRLAEFLRHSSPNFGAIPSSTNVGPETP-NH2
modifications: disulfide 2-7; N-terminus assumed
SMILES: CC[C@H](C)[C@H](NC(=O)[C@H](C)NC(=O)CNC(=O)[C@H](Cc1ccccc1)NC(=O)[C@H](CC(N)=O)NC(=O)[C@@H]1CCCN1C(=O)[C@H](CO)NC(=O)[C@H](CO)NC(=O)[C@H](Cc1c[nH]cn1)NC(=O)[C@H](CCCNC(=N)N)NC(=O)[C@H](CC(C)C)NC(=O)[C@H](Cc1ccccc1)NC(=O)[C@H](CCC(=O)O)NC(=O)[C@H](C)NC(=O)[C@H](CC(C)C)NC(=O)[C@H](CCCNC(=N)N)NC(=O)[C@H](CCC(N)=O)NC(=O)[C@@H](NC(=O)[C@H](C)NC(=O)[C@@H]1CSSC[C@H](NC(=O)[C@@H](N)CCCCNC(=O)CC[C@H](NC(=O)CC[C@H](NC(=O)CCCCCCCCCCCCCCCCCCC(=O)O)C(=O)O)C(=O)O)C(=O)N[C@@H](CC(N)=O)C(=O)N[C@@H]([C@@H](C)O)C(=O)N[C@@H](C)C(=O)N[C@@H]([C@@H](C)O)C(=O)N1)[C@@H](C)O)C(=O)N1CCC[C@H]1C(=O)N[C@@H](CO)C(=O)N[C@@H](CO)C(=O)N[C@H](C(=O)N[C@@H](CC(N)=O)C(=O)N[C@H](C(=O)NCC(=O)N1CCC[C@H]1C(=O)N[C@@H](CCC(=O)O)C(=O)N[C@H](C(=O)N1CCC[C@H]1C(N)=O)[C@@H](C)O)C(C)C)[C@@H](C)O
[1]
  Ratio hCT/hAmylin funct.: 0.8 ratio
  hCTR funct. EC50 (pM): 102 pM
[2]
  IC50: 0.533 nM

B3: N^ε1-[(4S)-4-carboxy-4-(19-carboxynonadecanoylamino)butanoyl]-[His14,Arg17,Pro21,Pro27,Pro34,Pro37]-h-amylin (peptide)
peptide: K([γGlu-C20 diacid])CNTATCATQRLAHFLRHSSPNFGAIPSSTNVGPNTP-NH2
modifications: disulfide 2-7; N-terminus assumed
SMILES: CC[C@H](C)[C@H](NC(=O)[C@H](C)NC(=O)CNC(=O)[C@H](Cc1ccccc1)NC(=O)[C@H](CC(N)=O)NC(=O)[C@@H]1CCCN1C(=O)[C@H](CO)NC(=O)[C@H](CO)NC(=O)[C@H](Cc1c[nH]cn1)NC(=O)[C@H](CCCNC(=N)N)NC(=O)[C@H](CC(C)C)NC(=O)[C@H](Cc1ccccc1)NC(=O)[C@H](Cc1c[nH]cn1)NC(=O)[C@H](C)NC(=O)[C@H](CC(C)C)NC(=O)[C@H](CCCNC(=N)N)NC(=O)[C@H](CCC(N)=O)NC(=O)[C@@H](NC(=O)[C@H](C)NC(=O)[C@@H]1CSSC[C@H](NC(=O)[C@@H](N)CCCCNC(=O)CC[C@H](NC(=O)CCCCCCCCCCCCCCCCCCC(=O)O)C(=O)O)C(=O)N[C@@H](CC(N)=O)C(=O)N[C@@H]([C@@H](C)O)C(=O)N[C@@H](C)C(=O)N[C@@H]([C@@H](C)O)C(=O)N1)[C@@H](C)O)C(=O)N1CCC[C@H]1C(=O)N[C@@H](CO)C(=O)N[C@@H](CO)C(=O)N[C@H](C(=O)N[C@@H](CC(N)=O)C(=O)N[C@H](C(=O)NCC(=O)N1CCC[C@H]1C(=O)N[C@@H](CC(N)=O)C(=O)N[C@H](C(=O)N1CCC[C@H]1C(N)=O)[C@@H](C)O)C(C)C)[C@@H](C)O
[1]
  Ratio hCT/hAmylin funct.: 0.8 ratio
[2]
  IC50: 0.131 nM

B4: N^ε1-[(4S)-4-carboxy-4-[[(4S)-4-carboxy-4-(19-carboxynonadecanoylamino)butanoyl]amino]butanoyl]-[Glu14,Arg17,Pro21,Pro27,Pro37]-h-amylin (peptide)
peptide: K([γGlu-γGlu-C20 diacid])CNTATCATQRLAEFLRHSSPNFGAIPSSTNVGSNTP-NH2
modifications: disulfide 2-7; N-terminus assumed
SMILES: CC[C@H](C)[C@H](NC(=O)[C@H](C)NC(=O)CNC(=O)[C@H](Cc1ccccc1)NC(=O)[C@H](CC(N)=O)NC(=O)[C@@H]1CCCN1C(=O)[C@H](CO)NC(=O)[C@H](CO)NC(=O)[C@H](Cc1c[nH]cn1)NC(=O)[C@H](CCCNC(=N)N)NC(=O)[C@H](CC(C)C)NC(=O)[C@H](Cc1ccccc1)NC(=O)[C@H](CCC(=O)O)NC(=O)[C@H](C)NC(=O)[C@H](CC(C)C)NC(=O)[C@H](CCCNC(=N)N)NC(=O)[C@H](CCC(N)=O)NC(=O)[C@@H](NC(=O)[C@H](C)NC(=O)[C@@H]1CSSC[C@H](NC(=O)[C@@H](N)CCCCNC(=O)CC[C@H](NC(=O)CC[C@H](NC(=O)CCCCCCCCCCCCCCCCCCC(=O)O)C(=O)O)C(=O)O)C(=O)N[C@@H](CC(N)=O)C(=O)N[C@@H]([C@@H](C)O)C(=O)N[C@@H](C)C(=O)N[C@@H]([C@@H](C)O)C(=O)N1)[C@@H](C)O)C(=O)N1CCC[C@H]1C(=O)N[C@@H](CO)C(=O)N[C@@H](CO)C(=O)N[C@H](C(=O)N[C@@H](CC(N)=O)C(=O)N[C@H](C(=O)NCC(=O)N[C@@H](CO)C(=O)N[C@@H](CC(N)=O)C(=O)N[C@H](C(=O)N1CCC[C@H]1C(N)=O)[C@@H](C)O)C(C)C)[C@@H](C)O
notes: also called compound 13
[1]
  Ratio hCT/hAmylin funct.: 2.2 ratio
[2]
  IC50: 0.264 nM

B5: N^ε1-[(4S)--4-carboxy-4-(19-carboxynonadecanoylamino)butanoyl]-[Glu14,Arg17,Pro21,Pro27,Pro37]-h-amylin (peptide)
peptide: K([γGlu-C20 diacid])CNTATCATQRLAEFLRHSSPNFGAIPSSTNVGSNTP-NH2
modifications: disulfide 2-7; N-terminus assumed
SMILES: CC[C@H](C)[C@H](NC(=O)[C@H](C)NC(=O)CNC(=O)[C@H](Cc1ccccc1)NC(=O)[C@H](CC(N)=O)NC(=O)[C@@H]1CCCN1C(=O)[C@H](CO)NC(=O)[C@H](CO)NC(=O)[C@H](Cc1c[nH]cn1)NC(=O)[C@H](CCCNC(=N)N)NC(=O)[C@H](CC(C)C)NC(=O)[C@H](Cc1ccccc1)NC(=O)[C@H](CCC(=O)O)NC(=O)[C@H](C)NC(=O)[C@H](CC(C)C)NC(=O)[C@H](CCCNC(=N)N)NC(=O)[C@H](CCC(N)=O)NC(=O)[C@@H](NC(=O)[C@H](C)NC(=O)[C@@H]1CSSC[C@H](NC(=O)[C@@H](N)CCCCNC(=O)CC[C@H](NC(=O)CCCCCCCCCCCCCCCCCCC(=O)O)C(=O)O)C(=O)N[C@@H](CC(N)=O)C(=O)N[C@@H]([C@@H](C)O)C(=O)N[C@@H](C)C(=O)N[C@@H]([C@@H](C)O)C(=O)N1)[C@@H](C)O)C(=O)N1CCC[C@H]1C(=O)N[C@@H](CO)C(=O)N[C@@H](CO)C(=O)N[C@H](C(=O)N[C@@H](CC(N)=O)C(=O)N[C@H](C(=O)NCC(=O)N[C@@H](CO)C(=O)N[C@@H](CC(N)=O)C(=O)N[C@H](C(=O)N1CCC[C@H]1C(N)=O)[C@@H](C)O)C(C)C)[C@@H](C)O
notes: also called compound 12
[1]
  Ratio hCT/hAmylin funct.: 1.8 ratio
[2]
  IC50: 0.142 nM

B6: N^-1-[(4S)-4-carboxy-4-(19-carboxynonadecanoylamino)butanoyl]-Gly[Arg1,Ala14,Arg17,Pro21,Pro27,Pro34]-h-amylin (peptide)
peptide: {C20 diacid-γGlu}-GRCNTATCATQRLAAFLRHSSPNFGAIPSSTNVGPNTY-NH2
modifications: disulfide 3-8 (inferred)
[1]
  Ratio hCT/hAmylin funct.: 2.1 ratio
[2]
  IC50: 0.114 nM

B7: N^-1-[(4S)-4-carboxy-4-(19-carboxynonadecanoylamino)butanoyl]-Gly[Arg1,His14,Arg17,Pro21,Pro27,Pro34]-h-amylin (peptide)
peptide: {C20 diacid-γGlu}-GRCNTATCATQRLAHFLRHSSPNFGAIPSSTNVGPNTY-NH2
modifications: disulfide 3-8 (inferred)
[1]
  Ratio hCT/hAmylin funct.: 2.9 ratio
[2]
  IC50: 0.217 nM

B8: N^-1-[(4S)-4-carboxy-4-(19-carboxynonadecanoylamino)butanoyl]-Gly[Arg1,Ala14,Arg17,Pro21,Pro27,His34]-h-amylin (peptide)
peptide: {C20 diacid-γGlu}-GRCNTATCATQRLAAFLRHSSPNFGAIPSSTNVGHNTY-NH2
modifications: disulfide 3-8 (inferred)
[1]
  Ratio hCT/hAmylin funct.: 4.9 ratio
[2]
  IC50: 0.426 nM

— patent publication US20140087995A1 (published 2014)
